The values below come from patent US20240294650A1 (Alector, published 2024).

The chains are these.
B1: MTK-203 (antibody, human IgG1, V domains shown)
VH: QVQLQQPGAELVKPGASVKVSCKASGYTFTNYWMHWVKQRPGQGLEWIGRIHPFDTETNDNQKFKGKATLTVDKSSSTAYMQLSSLTSEDSAVYYCVIPANGGFAYWGQGTLVTVSA
VL: ETTVTQSPASLSVATGEKVTIRCITSTDIGDDMNWYQQKPGEPPKVLISEGNSLRPGVPSRFSSSGYGTDFVFTIENTLSEDVADYFCLQSDNLPLTFGSGTKLEIK
B2: MTK-214 (antibody, human IgG1, V domains shown)
VH: QVQLQQPGAELVKPGASVKVSCKASGYTFTNYWMHWMKQRPGQGLEWIGRIHPFDSDTNYNEKFTDKATLTVDKSSSTAYMQLSSLTSEDSAVYYCAIGTLIYWGQGTTLTASS
VL: DILLTQSPATLSVTPGETVSLSCRASQSIYKKLHWFQQRSHRSPRLLIKFASDSISGIPSRFTGSGSGTDYTLSINSVKPEDEAIYYCLQGYSTPLTFGAGTKLELK
B3: MTK-230 (antibody, human IgG1, V domains shown)
VH: EVQLQQSGPELVKPGASVRIPCKASGYTFSDYNMDWVKQSHGKSLEWIGNINPNIGGTIYSQKFKGKATLTVDKSSSTAYMELRSLTSEDTAVYYCARGDYGFASWGQGTLVTVSA
VL: DIVLTQSPASLTVSLGQRATISCRASRSVSTSGYSYMHWYQQKPGQPPKLLIYLASNLESGVPARFSGSRSGTDFTLNIHPVEEEDAATYYCQHSREYPFTFGSGTKLEIK
B4: MTK-227 (antibody, human IgG1, V domains shown)
VH: EVKLVESGGGLVQPGGSLSLSCAASGFTFTDNYMTWVRQPPGKALEWLGFSRNKANGYTTEYSASVKGRFTISRDSSQSILYLQMNALRAEDSGTYYCARFPPHYYAGGYFDVWGTGTTVTVSS
VL: DIQMTQSPASLSASVGETVTITCRASENIYSYLAWYQQKQGKSPQLLVYNAKTLAEGVPSRFSGSGSGTQFSLKINSLQPADFGSYYCQHYYRTPPTFGGGTKLEIK
B5: MTK-224 (antibody, human IgG1, V domains shown)
VH: QVQLQQPGAELVKPGASVKVSCKASGYTFTSYWMHWVKQRPGQGLEWIGRIHPFDSDTNYNQKFKGKATLTVDKSSSTAYMQLSSLTSEDSAVYYCSIAGFAYWGQGTLVTVSA
VL: DIVMTQSPATLSVTPGDRVSLSCRASQIISDYLNWYQQKSHESPRLLIKYASQSISGIPSRFSGSGSGSDFTLSINSVEPEDVGVYYCQNGHSFPLTFGAGTKLELK
B6: MTK-209 (antibody, human IgG1, V domains shown)
VH: QVQLQQPGAELVKPGASVKVSCKASGYTFTNYWIHWVKQRPGQGLEWIGRIHPFDSEPNYNQKFKGKATLTVDKSSSTAYMHLTSLTSEDSAVYYCALASFAYWGQGTLVTVSA
VL: ETTVTQSPASLSMAMGEKATIRCITSTDIDDKMNWYQQKPGKPPKLLISAGNTLRPGVPSRFSSSGYGTDFVLTVENMLSEDVADYYCLQGGALPLTFGSGTKLEIK
B7: MTK-228 (antibody, human IgG1, V domains shown)
VH: QDQLQQSGPELVKPGASVKISCKASGYSFTSYYIHWVKQRPGQGLEWVGWIFPGNGNTKYNERFKGKATLTADTSSSTAYMQLSSLTSEDSAVYYCARLGLIYALDYWGQGTSVTVSS
VL: DAVMTQTPLSLPVSLGDQASISCRSSQSLENSNGNTYLHWYLQKPGQSPQLLIYRVSNRFSGVLDRFSGSGSGTDFTLKISRVEAEDLGVYFCLQVTHVPFTFGSGTKLEIK
B8: MTK-221 (antibody, human IgG1, V domains shown)
VH: QVTLKESGPGMLQSSQTLSLTCSFSGFSLSTSGMGVSWIRQPSGKGLEWLAHIYWDDDKRYNTSLQSRLTISKDTSRNQVFLKITSVDTADTATYFCGRLGAYSAFPYYFDYWGQGTTLTVSS
VL: DIQMTQSPSSLSASLGGKVTITCKASQDIHKHIAWYQHKPGKGPRLLIHYTSTLQPGIPSRFSGSGSGRDYSFSISNLEPEDLATYYCLQYDNLWTFGGGTKLEIK
B9: MTK-210 (antibody, human IgG1, V domains shown)
VH: QVQLQQSGPELVKPGASVKISCKASDYEFSRSWMNWVKQRPGKGLEWIGRIYPGDGDTNYNGKFKGKATLTADKSSNTAYMQLNSLTSEDSAVYFCARKGGYYYSISNYFDYWGQGTTLTVSS
VL: QIVLTQSPAIMSASPGVKVTMTCSASSSVSYMHWYQQKPGSSPRLLIYDTSNLASGVPVRFSGSGSGTSYSLTISRMEAEDAATYYCQQWSSYPPYTFGGGTKLEIK
B10: MTK-201 (antibody, human IgG1, V domains shown)
VH: QVQLRQSGPGLVQPSQSLSITCTVSGFSLSNYGLHWVRQSPGKGLEWLGVIWSGGITDYNAAFISRLSIIKDNSRSQVFFKMNSLQADDTAIYYCARKGHDPYAMDFWGQGTSVTVSS
VL: QIVLTQSPPIMSAFLGERVTMTCTASSSVSSSYLHWYRQMPGSSPKLWIYDTSNLASGVPARFSGSGSGTSYSLTISSMEAEDAATYYCHQYHHSPYTFGGGTKLEIK
B11: MTK-208 (antibody, human IgG1, V domains shown)
VH: QVQLQQPGAELVVPGASVRLSCKASGYTFINYWMHWVKQRPGQGLEWIGEIDPSDSYANYNQKFKDKSTLSLDKSSSTAYMQLSSLTSEDSAVYYCARCDYYGRLDYWGQGTTLTVSS
VL: QVVLTQSPAIMSASPGEKVTITCSASSSVSYMLWFQQKPGTSPKLWIYSTSNLASGVPARFSGSGSGTSYSLTISRLEAEDAATYYCQQRSSYPPITFGAGTKLELK
B12: MTK-216 (antibody, human IgG1, V domains shown)
VH: EVQLVESGGGLVKPGGSLKLSCAASGFTFSDYGMHWVRQAPEKGLEWVAFISSGSTTIYYADTVKGRFTISRDNAKNTLILQMTSLRSEDTAIYYCTRGGFHLDYWGQGTTLTVSS
VL: SIMMTQSPSSLAVSAGEKVTMGCKSSQSVLYSANQQNYLAWYQQKPGQSLKLLIYWASTRESGVPDRFTGSGSGTDFTLTISSVQAEDLAVYYCHQYFSSWTFGGGTKLEIK

For one assay, the target named is T1, endogenous murine MerTK on bone marrow-derived macrophages (mouse, UniProt Q60805 19-994).
T1 construct: whole, on cells; MFI on MerTK KO BMDM subtracted; also called BMDM WT-KO
T1 sequence (looked up): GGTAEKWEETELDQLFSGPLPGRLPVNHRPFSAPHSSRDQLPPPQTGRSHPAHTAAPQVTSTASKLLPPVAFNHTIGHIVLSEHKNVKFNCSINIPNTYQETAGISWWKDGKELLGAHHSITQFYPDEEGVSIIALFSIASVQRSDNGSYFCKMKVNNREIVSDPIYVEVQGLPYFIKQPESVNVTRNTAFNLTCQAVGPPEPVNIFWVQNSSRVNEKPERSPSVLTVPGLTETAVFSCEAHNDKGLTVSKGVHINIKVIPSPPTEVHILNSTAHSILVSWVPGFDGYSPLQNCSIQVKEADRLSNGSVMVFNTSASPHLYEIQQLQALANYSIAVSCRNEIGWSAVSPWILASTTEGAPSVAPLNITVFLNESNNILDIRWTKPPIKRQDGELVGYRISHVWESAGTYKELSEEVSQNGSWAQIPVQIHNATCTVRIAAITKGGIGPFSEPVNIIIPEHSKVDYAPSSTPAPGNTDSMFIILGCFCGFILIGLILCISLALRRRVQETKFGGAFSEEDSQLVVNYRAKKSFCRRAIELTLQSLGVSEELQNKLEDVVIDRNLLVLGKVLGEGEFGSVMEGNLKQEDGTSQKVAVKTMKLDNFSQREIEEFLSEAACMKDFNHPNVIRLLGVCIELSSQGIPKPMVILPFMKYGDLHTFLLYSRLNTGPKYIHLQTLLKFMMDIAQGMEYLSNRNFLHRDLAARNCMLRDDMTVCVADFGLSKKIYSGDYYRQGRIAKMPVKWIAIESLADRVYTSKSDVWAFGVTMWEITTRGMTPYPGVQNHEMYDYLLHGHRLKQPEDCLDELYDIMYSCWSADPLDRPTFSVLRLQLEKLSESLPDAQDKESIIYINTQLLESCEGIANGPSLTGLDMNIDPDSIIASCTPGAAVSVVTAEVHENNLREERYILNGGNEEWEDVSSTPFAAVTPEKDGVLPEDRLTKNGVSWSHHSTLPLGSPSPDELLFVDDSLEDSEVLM
Nature of the assay: FACS, mouse BMDM, WT minus MerTK KO. How it is done: To determine whether recombinant anti-human MerTK antibodies of the present disclosure bind to human MerTK endogenously expressed on SK-MEL-5 cells and CHO cells overexpressing mouse MerTK (CHO-muMerTK OE cells), as compared to A375 and parental CHO cells as negative controls, the following experiments were performed. SK-MEL-5 cells, A375 cells, CHO-muMerTK OE cells, and CHO parental cells were plated at 100,000 cells/well. Anti-MerTK antibodies were added to the cells at 10 μg/ml. After 60 minutes on ice, cells were washed and then stained with PE-conjugated goat anti-human IgG antibody (Southern Biotech Cat #2040-09, Birmingham, AL) in the presence of Fc block solution on ice for 30 minutes, and then washed twice with cold FACS buffer (2% FBS in PBS). Mouse anti-human MerTK-PE conjugated (Biolegend, Clone 590H11G1E3) or anti-mouse MerTK-PE conjugated (ThermoFisher, Clone DS5MMER) antibodies were used as positive controls. Stained cells were acquired on a BD FACS Canto II cytometer and the mean fluorescence intensity (MFI) was calculated with FlowJo.
To confirm anti-MerTK antibody binding to endogenous murine MerTK, bone marrow-derived macrophages (BMDM) were isolated from MerTK wild type (WT) and knockout (KO) mice (The Jackson Laboratory, Cat #011122) using standard protocols. Briefly, cells isolated from the bone marrow were plated in the presence of 50 ng/ml M-CSF (R&D Systems, Cat #416-ML) for seven days to allow for differentiation into macrophages. Cell staining, FACs, and MFI were performed and calculated as described above.
B1 yielded an MFI of 2980 MFI. As for B2, the MFI was 2950 MFI. On the same count and under the same terms, to B3 belongs 9120 MFI; to B4, 5020 MFI. In turn, B5 registered an MFI of 1860 MFI. In turn, B6 displayed an MFI of 813 MFI. Same read-out and setting: under B7 stands 7370 MFI.

For the next assay, the target named is T2, human MerTK (human, UniProt Q12866 21-999).
T2 sequence: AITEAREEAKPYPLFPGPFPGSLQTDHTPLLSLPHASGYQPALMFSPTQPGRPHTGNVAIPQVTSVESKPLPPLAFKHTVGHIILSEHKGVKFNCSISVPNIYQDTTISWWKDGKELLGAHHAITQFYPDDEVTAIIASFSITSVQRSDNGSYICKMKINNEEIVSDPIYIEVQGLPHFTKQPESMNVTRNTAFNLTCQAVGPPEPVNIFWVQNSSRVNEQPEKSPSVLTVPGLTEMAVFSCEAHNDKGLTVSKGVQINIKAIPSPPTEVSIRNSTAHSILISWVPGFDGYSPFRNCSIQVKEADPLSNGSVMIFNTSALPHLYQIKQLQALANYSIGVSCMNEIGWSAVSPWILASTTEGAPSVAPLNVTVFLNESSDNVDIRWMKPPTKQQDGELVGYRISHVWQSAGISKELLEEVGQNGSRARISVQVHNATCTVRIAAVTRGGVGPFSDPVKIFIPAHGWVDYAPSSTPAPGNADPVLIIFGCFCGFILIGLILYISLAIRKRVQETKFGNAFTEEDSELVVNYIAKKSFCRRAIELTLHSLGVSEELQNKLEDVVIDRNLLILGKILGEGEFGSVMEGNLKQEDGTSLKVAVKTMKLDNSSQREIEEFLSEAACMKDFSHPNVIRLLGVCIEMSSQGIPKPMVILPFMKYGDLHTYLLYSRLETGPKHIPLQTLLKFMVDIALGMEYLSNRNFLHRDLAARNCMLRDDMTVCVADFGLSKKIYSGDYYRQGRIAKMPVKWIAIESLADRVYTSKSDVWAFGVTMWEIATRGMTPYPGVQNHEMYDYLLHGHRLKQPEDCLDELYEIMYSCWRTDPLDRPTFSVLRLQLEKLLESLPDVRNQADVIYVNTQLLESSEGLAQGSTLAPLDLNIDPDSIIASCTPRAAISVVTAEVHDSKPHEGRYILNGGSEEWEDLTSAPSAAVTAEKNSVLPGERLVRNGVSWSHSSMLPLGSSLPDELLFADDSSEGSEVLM
The assay can be described thus: cell-based or functional assay.
Regarding B8, the “Fold increase in PAKT over IgG control” value was found to be 4.4 fold. As for B4, the “EC50 (nM), pAKT in SK-MEL-5 cells” value is 1.89 nM and the “Fold increase in PAKT over IgG control” value was 4.7 fold. B9: the “EC50 (nM), pAKT in SK-MEL-5 cells” value is 15 nM and the “Fold increase in PAKT over IgG control” value was 3.3 fold. As to B10, the “EC50 (nM), pAKT in SK-MEL-5 cells” value was 0.65 nM and the “Fold increase in PAKT over IgG control” value was 4.3 fold.

As to B11, the “Fold increase in PAKT over IgG control” value is 2.6 fold. In the case of B12, the “Fold increase in PAKT over IgG control” value was 3.2 fold.

In the case of B7, the “EC50 (nM), pAKT in SK-MEL-5 cells” value was 0.53 nM and the “Fold increase in PAKT over IgG control” value came to 4.2 fold.
